Starred links: 1 amine or outer side, 2 acyl side, 3 side chain; linkers in the order of their positions; H or OH if unused. Positions of bridges follow the written chain, without caps; N, C: chain ends. Non-standard residues stand in square brackets, D forms with d. Residues, ends and D or L forms follow the SMILES beside them. *: point of attachment. FITC = O=C1OC2(c3ccc(O)cc3Oc3cc(O)ccc32)c2ccc(NC(=S)*)cc21; X2 = CC(C)C[C@](CCCC=[*:3])(N[*:1])C(=O)[*:2]; X6 = NCCCC[C@](CCCC=[*:3])(N[*:1])C(=O)[*:2]; X1 = CSCC[C@](CCCC=[*:3])(N[*:1])C(=O)[*:2]; X3 = O=C([C@@](CO)(CCCC=[*:3])N[*:1])[*:2]; X5 = C=CCCC[C@@](CC(C)C)(N[*:1])C(=O)[*:2]; X4 = C=CCCC[C@@](CCSC)(N[*:1])C(=O)[*:2]; R5 = C=CCCC[C@@](C)(N)C(=O)O; S5 = C=CCCC[C@](C)(N)C(=O)O; βAla = NCCC(=O)O
Assays:
circular dichroism = conditions: 10 mM phosphate buffer (captions say PBS); pH 7.4; 25 °C; 50 uM
α-chymotrypsin = α-chymotrypsin (Bos taurus, UniProt P00766); test: Proteolytic stability towards α-chymotrypsin; conditions: α-chymotrypsin 5 ng μL^–1 (supplement: 0.5 ng/µL) in 50 mM PBS pH 7.4 with 2 mM CaCl2, peptide 0.1 mM final, room temperature, 1 h, analytical HPLC, duplicate independent experiments
[1] = test system: Wnt/β-catenin dependent transcriptional activity; test: Topflash-luciferase reporter, Wnt3a-induced expression; format: cell-based; conditions: Wnt3a conditioned medium, peptide 40 μM, 12 h; for Wnt3a-induced Topflash reporter expression, comparison in words: HEK293T cells transfected with Topflash-luciferase
Excerpt: We next explored the effects of these peptides on Wnt/β-catenin dependent transcriptional activity. The Topflash reporter, in which firefly luciferase is transcriptionally activated by β-catenin, was employed. […] Con = non-specific control. […] Scale bar: 50 μm.

[2] = Circular dichroism (CD) analysis, percent helicity from [θ]222; format: physicochemical; conditions: peptide 50 μM in phosphate buffer (10 mM, pH 7.4), 25 °C, 1 mm cuvette, calculated from [θ]222
Description: (§1) Con = non-specific control. […] Scale bar: 50 μm.
(§2) The CD spectra were obtained with
(§3) The measurement parameters
(§4) background subtraction. The curves were smoothed using standard parameters. In addition,
(§5) Figure S3. CD spectra of all peptides.
(§6) concentration of 50 μM. The percent helicity was calculated based on the [θ] 222 value.

in vitro = conditions: isolated enzyme chymotrypsin, pH 7.4
HEK 293T/17 cells = test: Cell permeability of FITC-labelled peptides by confocal microscopy; format: cell-based; conditions: FITC–β-Ala–peptide 40 μM (supplement: 10 µM), 16 h, washed with PBS twice, fixed, confocal fluorescence microscopy
Excerpt: as §1
We then assessed the cell permeability of the peptides by conjugating fluorescein isothiocyanate (FITC) to Axin (469–482), WNT-3a and WNT-3c (Fig. 3d). […] To explore the detailed binding mode of WNT-3a against β-catenin, we conducted a Z-dock of the WNT-3a–β-catenin complex to predict structural models of the protein–protein complexes.[27] […] Owing to an introduction of the stapling group, Met-481 is closer to the Trp-338 of β-catenin, and thus forms a stronger interaction with that residue. In addition, a stronger salt bridge between the side chain carboxyl group of Asp-474 coordinated with the amino group of β-catenin Lys-292 and a more efficient hydrogen bond between the side chain of His-476 and β-catenin Asp-299 are constructed because of a closer distance geometrically. It is conceivable that these changes enhanced the conformational stability of WNT-3a in its bound state, thereby contributing to the improved binding activity.
as §2, §3, §4, §5, §6

## CC[C@H](C)[C@H](NC(=O)[C@H](CO)NC(=O)[C@H](CCC(=O)O)NC(=O)[C@@H]1CCCN1C(C)=O)C(=O)N[C@@H](CC(C)C)C(=O)N[C@@H](CC(=O)O)C(=O)N[C@@H](CCC(=O)O)C(=O)N[C@@H](Cc1c[nH]cn1)C(=O)N[C@@]1(C)CCCC=CCCC[C@@](C)(C(=O)N[C@@H](CCCCN)C(N)=O)NC(=O)[C@H](C(C)C)NC(=O)[C@H](CCCNC(=N)N)NC(=O)[C@H](CCC(N)=O)NC1=O (Ac-PESILDEH[S5]QRV[S5]K-NH2; staple 9-13)
Circular dichroism
  helicity: 64.7%

## CC[C@H](C)[C@@H]1NC(=O)[C@](CO)(NC(=O)[C@H](CCC(=O)O)NC(=O)[C@@H]2CCCN2C(C)=O)CCCC=CCCC[C@@](C)(C(=O)N[C@@H](CCC(=O)O)C(=O)N[C@@H](Cc2c[nH]cn2)C(=O)N[C@H](C(=O)N[C@@H](CCC(N)=O)C(=O)N[C@@H](CCCNC(=N)N)C(=O)N[C@H](C(=O)N[C@@H](CCSC)C(=O)N[C@@H](CCCCN)C(N)=O)C(C)C)C(C)C)NC(=O)[C@H](CC(C)C)NC1=O (Ac-PE[X3]IL[S5]EHVQRVMK-NH2; staple 3-6)
Circular dichroism
  helicity: 51.3%

## CC[C@H](C)[C@H](NC(=O)[C@H](CO)NC(=O)[C@H](CCC(=O)O)NC(=O)[C@@H]1CCCN1C(C)=O)C(=O)N[C@@H](CC(C)C)C(=O)N[C@@H](CC(=O)O)C(=O)N[C@@H](CCC(=O)O)C(=O)N[C@@H](Cc1c[nH]cn1)C(=O)N[C@]1(C)CCCC=CCCC[C@](CCSC)(C(=O)N[C@@H](CCCCN)C(N)=O)NC(=O)[C@H](C(C)C)NC(=O)[C@H](CCCNC(=N)N)NC(=O)[C@H](CCC(N)=O)NC1=O [WNT-3a] (Ac-PESILDEH[R5]QRV[X1]K-NH2; staple 9-13)
α-chymotrypsin
  degradation by α-chymotrypsin: completely stable and no degradation was observed even after 1 h
Circular dichroism
  helicity: 42.3%

## CC[C@H](C)[C@H](NC(=O)[C@H](CO)NC(=O)[C@H](CCC(=O)O)NC(=O)[C@@H]1CCCN1C(C)=O)C(=O)N[C@]1(CC(C)C)CCCC=CCCC[C@@](C)(C(=O)N[C@H](C(=O)N[C@@H](CCC(N)=O)C(=O)N[C@@H](CCCNC(=N)N)C(=O)N[C@H](C(=O)N[C@@H](CCSC)C(=O)N[C@@H](CCCCN)C(N)=O)C(C)C)C(C)C)NC(=O)[C@H](CCC(=O)O)NC(=O)[C@H](CC(=O)O)NC1=O [WNT-6a] (Ac-PESI[X2]DE[S5]VQRVMK-NH2; staple 5-8)
[1]
  Wnt3a-induced Topflash reporter expression, comparison in words: enhanced the Wnt3a-induced reporter expression more effectively than Axin (469–482)
[1]; HEK293T cells, Topflash-luciferase, compared with Axin (469–482)
  fold enhancement of Wnt3a-induced reporter expression: three-fold enhancement
[2]
  α-Helicity: 70.87%
Circular dichroism
  helicity: 70.9%

## Ac-PESILDEHVQRVMK-NH2 [Axin (469–482)]
In vitro
  half-life at 0.1 mM: 9 min
Circular dichroism
  helicity: 19.6%

## CC[C@H](C)[C@@H]1NC(=O)[C@](C)(NC(=O)[C@H](CCC(=O)O)NC(=O)[C@@H]2CCCN2C(C)=O)CCCC=CCCC[C@@](C)(C(=O)N[C@@H](CCC(=O)O)C(=O)N[C@@H](Cc2c[nH]cn2)C(=O)N[C@H](C(=O)N[C@@H](CCC(N)=O)C(=O)N[C@@H](CCCNC(=N)N)C(=O)N[C@H](C(=O)N[C@@H](CCSC)C(=O)N[C@@H](CCCCN)C(N)=O)C(C)C)C(C)C)NC(=O)[C@H](CC(C)C)NC1=O (Ac-PE[R5]IL[S5]EHVQRVMK-NH2; staple 3-6)
Circular dichroism
  helicity: 40%

## CC[C@H](C)[C@H](NC(=O)[C@H](CO)NC(=O)[C@H](CCC(=O)O)NC(=O)[C@@H]1CCCN1C(C)=O)C(=O)N[C@@H](CC(C)C)C(=O)N[C@@H](CC(=O)O)C(=O)N[C@@H](CCC(=O)O)C(=O)N[C@@H](Cc1c[nH]cn1)C(=O)N[C@]1(C)CCCC=CCCC[C@](C)(C(=O)N[C@@H](CCCCN)C(N)=O)NC(=O)[C@H](C(C)C)NC(=O)[C@H](CCCNC(=N)N)NC(=O)[C@H](CCC(N)=O)NC1=O (Ac-PESILDEH[R5]QRV[R5]K-NH2; staple 9-13)
Circular dichroism
  helicity: 35.4%

## CC[C@H](C)[C@H](NC(=O)[C@H](CO)NC(=O)[C@H](CCC(=O)O)NC(=O)[C@@H]1CCCN1C(=O)CCNC(=S)Nc1ccc2c(c1)C(=O)OC21c2ccc(O)cc2Oc2cc(O)ccc21)C(=O)N[C@@H](CC(C)C)C(=O)N[C@@H](CC(=O)O)C(=O)N[C@@H](CCC(=O)O)C(=O)N[C@@H](Cc1c[nH]cn1)C(=O)N[C@H](C(=O)N[C@@H](CCC(N)=O)C(=O)N[C@@H](CCCNC(=N)N)C(=O)N[C@H](C(=O)N[C@@H](CCSC)C(=O)N[C@@H](CCCCN)C(N)=O)C(C)C)C(C)C [FITC–β-Ala–Axin (469–482)] ({FITC-βAla}-PESILDEHVQRVMK-NH2)
HEK 293T/17 cells
  cell permeability: also penetrated the cell membrane

## CC[C@H](C)[C@@H]1NC(=O)[C@](CO)(NC(=O)[C@H](CCC(=O)O)NC(=O)[C@@H]2CCCN2C(C)=O)CCCC=CCCC[C@](C)(C(=O)N[C@@H](Cc2c[nH]cn2)C(=O)N[C@H](C(=O)N[C@@H](CCC(N)=O)C(=O)N[C@@H](CCCNC(=N)N)C(=O)N[C@H](C(=O)N[C@@H](CCSC)C(=O)N[C@@H](CCCCN)C(N)=O)C(C)C)C(C)C)NC(=O)[C@H](CC(=O)O)NC(=O)[C@H](CC(C)C)NC1=O (Ac-PE[X3]ILD[R5]HVQRVMK-NH2; staple 3-7)
Circular dichroism
  helicity: 24.8%

## CC[C@H](C)[C@H](NC(=O)[C@H](CO)NC(=O)[C@H](CCC(=O)O)NC(=O)[C@@H]1CCCN1C(C)=O)C(=O)N[C@@H](CC(C)C)C(=O)N[C@@H](CC(=O)O)C(=O)N[C@@H](CCC(=O)O)C(=O)N[C@@H](Cc1c[nH]cn1)C(=O)N[C@H](C(=O)N[C@@H](CCC(N)=O)C(=O)N[C@@]1(C)CCCC=CCCC[C@](CCCCN)(C(N)=O)NC(=O)[C@H](CCSC)NC(=O)[C@H](C(C)C)NC1=O)C(C)C [WNT-8a] (Ac-PESILDEHVQ[S5]VM[X6]-NH2; staple 11-14)
[1]
  Wnt3a-induced Topflash reporter expression, comparison in words: enhanced the Wnt3a-induced reporter expression more effectively than Axin (469–482)

## C=CCCC[C@@](CC(C)C)(NC(=O)[C@@H](NC(=O)[C@H](CO)NC(=O)[C@H](CCC(=O)O)NC(=O)[C@@H]1CCCN1C(C)=O)[C@@H](C)CC)C(=O)N[C@@H](CC(=O)O)C(=O)N[C@@H](CCC(=O)O)C(=O)N[C@@H](Cc1c[nH]cn1)C(=O)N[C@](C)(CCCC=C)C(=O)N[C@@H](CCC(N)=O)C(=O)N[C@@H](CCCNC(=N)N)C(=O)N[C@H](C(=O)N[C@@H](CCSC)C(=O)N[C@@H](CCCCN)C(N)=O)C(C)C (Ac-PESI[X5]DEH[R5]QRVMK-NH2)
Circular dichroism
  helicity: 21.6%

## CC[C@H](C)[C@H](NC(=O)[C@H](CO)NC(=O)[C@H](CCC(=O)O)NC(=O)[C@@H]1CCCN1C(C)=O)C(=O)N[C@]1(C)CCCC=CCCC[C@@](C)(C(=O)N[C@H](C(=O)N[C@@H](CCC(N)=O)C(=O)N[C@@H](CCCNC(=N)N)C(=O)N[C@H](C(=O)N[C@@H](CCSC)C(=O)N[C@@H](CCCCN)C(N)=O)C(C)C)C(C)C)NC(=O)[C@H](CCC(=O)O)NC(=O)[C@H](CC(=O)O)NC1=O (Ac-PESI[R5]DE[S5]VQRVMK-NH2; staple 5-8)
Circular dichroism
  helicity: 36.8%

## C=CCCC[C@@](CCSC)(NC(=O)[C@@H](NC(=O)[C@H](CCCNC(=N)N)NC(=O)[C@](C)(CCCC=C)NC(=O)[C@@H](NC(=O)[C@H](Cc1c[nH]cn1)NC(=O)[C@H](CCC(=O)O)NC(=O)[C@H](CC(=O)O)NC(=O)[C@H](CC(C)C)NC(=O)[C@@H](NC(=O)[C@H](CO)NC(=O)[C@H](CCC(=O)O)NC(=O)[C@@H]1CCCN1C(C)=O)[C@@H](C)CC)C(C)C)C(C)C)C(=O)N[C@@H](CCCCN)C(N)=O (Ac-PESILDEHV[S5]RV[X4]K-NH2)
Circular dichroism
  helicity: 49.9%

From paper PMC5672839, “A novel peptide stapling strategy enables the retention of ring-closing amino acid side chains for the Wnt/β-catenin signalling pathway” (Chemical Science, 2017)
